Biological target: lysozyme (chicken (egg white), UniProt P00698 19-147)
Test: electrochemical impedance spectroscopy (Rct decrease); 0-20 ug/mL lysozyme, 15 min; sensor LOD 90 ng/mL (not a Kd); EIS: proteins in 50 mM phosphate buffer (PBS) pH 7.4, 15 min incubation, rinse with PBS and DI water, then ferro-/ferricyanide read-out; SWV: 10 mM PBS; temperature not stated
Conditions: protein: commercial

Sequence of lysozyme (P00698 19-147): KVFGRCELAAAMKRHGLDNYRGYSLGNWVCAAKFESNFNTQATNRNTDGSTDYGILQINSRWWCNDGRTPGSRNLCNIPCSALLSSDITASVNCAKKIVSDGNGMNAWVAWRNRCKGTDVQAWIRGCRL

ATCAGGGCTAAAGAGTGCAGAGTTACTTAG (ssDNA) [anti-lysozyme aptamer (30-mer)]
binding result: binds
